Source: the RNAGym collection of RNA variant scans (doi:10.7554/elife.90254)

B1: LINE1-full (parent)
chain: UACGUAGGUGGUUUUCCCCUGAUAGUGCUAAGGGGGCCUGGAAGUUUGGACUGGGCAGAGCUCAACACAGCGUGGCAAAGUGGCUGUGGCUAGACUGCCUCUCUGGAUUCCUCGUCACUCAGCAGGGCAUCUCUGAGAGAAAUGCC

Variants of: B1
Experiment: self-cleavage, relative activity (ratio to wild type); higher = more cleavage; in vitro, sequencing; the parent is a self-cleaving ribozyme
UACAUAGGUGGUUUUCCCCUGAUAGUGCUAAGGGGGCCUGGAAGUUUGGACUGGGCAGAGCUCAACACAGCGUGGCAAUGUGGCUGUGGCUAGACUGCCUCUCUGGAUUCCUCGUCACUCAGCAGGGCAUCUCUGAGAGAAAUGCC [G4A A79U] gave a self-cleavage of 0.64. Variant UACGUAGGUGGUUUUCCCCUGAUAGUGCUAAGGGGGCCAGGAAGUUUGGACUGGGCAGAGCUCAACACAGCGUGGCAAAGUGGCUGUGGCUAGACUGCCUCUCUGGAUUCCUCGUCACUCAACAGGGCAUCUCUGAGAGAAAUGCC [U39A G122A] has a self-cleavage of 0.54. With UACGUAGGUGGUUUUCCCCUGAUAGUGCUAAGGGGGCCUGGAAGUUUGGACUGGGCAGAGCUCAACACAGCAUGGCAAAGUGGCCGUGGCUAGACUGCCUCUCUGGAUUCCUCGUCACUCAGCAGGGCAUCUCUGAGAGAAAUGCC [G72A U85C] the self-cleavage was 0.08. Variant UACGUAGGUGGUUUUCCCCUGAUAGUGCUAAGGGGGCCAGGAAGUUUGGACUGGGCAGAGCUCAACACAGCGUGGCAAAGUGGCUGUGGCUAGACUGCCUCUCUGGAUUCCUCGUCACUCAGCAGGGCAUCUCCGAGAGAAAUGCC [U39A U134C] has a self-cleavage of 1.3. UACGUAGGUGGUUUUCCCCUGAUAGUGCUAAGGGGGCCUGGAAGUUUGGACUGGGCAGAGCUCAACACAGCGUAGCAAAGUGGCUGUGGCUUGACUGCCUCUCUGGAUUCCUCGUCACUCAGCAGGGCAUCUCUGAGAGAAAUGCC [G74A A92U] gave a self-cleavage of 0.1. UACGUAGGUGGUUAUCCCCUGAUAGUGCUAAGGGGGCCUGGAAGUUUGGACUGGGCAGAGCUCAACACAGCGUGGCAAAGUGGCUGUGGCUAGACUGCCUCUCUGGAUUCCUCGUCACCCAGCAGGGCAUCUCUGAGAGAAAUGCC [U14A U119C] gave a self-cleavage of 0.85. UACGUAGGUGGUUUUCCCCUGAUAGGGCUAAGGGGGCCUGGAAGUUUGGACUGGGCAGAGCUCAACACAGCGCGGCAAAGUGGCUGUGGCUAGACUGCCUCUCUGGAUUCCUCGUCACUCAGCAGGGCAUCUCUGAGAGAAAUGCC [U26G U73C] showed a self-cleavage of 0.96. With UACGUAGGUGGUUUUCCCCUGAUAGUGCUAAGGGUGCCUGGAAGUUUGGACUGGGCAGAGCUCAACACAGCGUGGCAAAGUGGCUGCGGCUAGACUGCCUCUCUGGAUUCCUCGUCACUCAGCAGGGCAUCUCUGAGAGAAAUGCC [G35U U87C] the self-cleavage was 0.14. UACGUAGGUGGUUUUCCCCUGAUAGUGCUAAGGGGGCCUGGAAGUUUGGACUGGGCAGAGCUCAACACAGCGUGGCAAAGUGGCUGUGGCUAGACUGCCUCUCUUGAUUCCUCGUCACUCAGCUGGGCAUCUCUGAGAGAAAUGCC [G105U A124U] showed a self-cleavage of 0.22. For UACGUAGGUGGCUUUCCCCUGAUAGUGCUAAGGGGGCCUGGAAGUUUGGACUGGGCAGAGCUCAACACAGCGUGGCAAAGUGGCUGUGGCUAGACUGCCUCUCUGGAUUCCUCGUCACUCAGCAGGGCAUCUCUGAGAGAAAUGCA [U12C C146A], the self-cleavage was 1.45. Work on UACGUAGGUGGUUUUCCCCUGAUAGUGCUAAGGGGGCCUGGAAGUUUGGACUGGGCAGAGCUAAACACAGCGUGGCAAAGUGGCUGUGGCUAGACUGCCUCUCUGGAUUCCUCGUCACUCAGCAGGGCGUCUCUGAGAGAAAUGCC [C63A A129G] yielded a self-cleavage of 0.09. Work on UACGUAGGUGGUUUUCCCCUGAUAGUGCUAAGGGGGCCUGGAAGUUUGGACUGGGCAGAGCUCAACACAGCGUGGCAAAGUGGCUGUGGCUAGACCGCCUCUCUGGAUCCCUCGUCACUCAGCAGGGCAUCUCUGAGAGAAAUGCC [U96C U109C] yielded a self-cleavage of 0.08. With UACGUAGGUGGUAUUCCCCUGAUAGUGCUAAGGGGGCCUGGAAGUUUGGACUGGGCAGAGCUCAUCACAGCGUGGCAAAGUGGCUGUGGCUAGACUGCCUCUCUGGAUUCCUCGUCACUCAGCAGGGCAUCUCUGAGAGAAAUGCC [U13A A65U] the self-cleavage was 0.09. In the case of UACGCAGGUGGUUUUCCCCUGAUAGUGCUAAGGGGGCCUGGAAGUUUGGACUGGGCAGAGCUCAACACAGCGUGGCAAAGUGGCUGUGGCUAGACUACCUCUCUGGAUUCCUCGUCACUCAGCAGGGCAUCUCUGAGAGAAAUGCC [U5C G97A], the self-cleavage is reported as 0. With UACGUAGGUGGUUUUCCCCUGAUAGUGCUAAGGGGGCCUGGAAGUUUGGACUGGGCAGAGCUCAACACAGCGUGGCAAAGUGGCUGUGGCUAGACGGCCUCUCUGGAUUCCUCGUCACUCAGCAGAGCAUCUCUGAGAGAAAUGCC [U96G G126A] the self-cleavage was 0. In the case of UACGUAGGUGGUUUUCCCCUGAUAGUGCUAAGGGGGCCUGGAAGUUUGGACUGGGCAGAGCCCAACACAGCGUGGCAAAGUGGCUGUGGCUAGACUGCCUCUCUGGAUUCCUCGUCACUCAGCAGGGCAUCUCUGAAAGAAAUGCC [U62C G137A], the self-cleavage is reported as 0.17. In the case of UACGUAGGUGGUUUUCCACUGAUAGUGCUAAGGGGGCCUGGAAGUUUGGACUGGGCAGAGCUCAACACAGCGUGGCAAAGUGGCUGUGGCUAGACCGCCUCUCUGGAUUCCUCGUCACUCAGCAGGGCAUCUCUGAGAGAAAUGCC [C18A U96C], the self-cleavage is reported as 0.22. With UACGUAGGUGGUUUUCCCCUGAUAGUGCUAAGGGGGCCUGGAAGUUUGGACUGGGCAGAGCUCAACACAGCGUGGCAAAGUGGCUGUGGCUAGACUGUCUCUCUGGAUUCCUCGACACUCAGCAGGGCAUCUCUGAGAGAAAUGCC [C98U U115A] the self-cleavage was 0.44. In the case of UACGUAGGUGGUUUUCCCCUGAUAGUGCUAAGGGGGCCUGGAAGUUUGGACUGGGCAGAGCUCAACACAGCGUGGCAAGGUGGCUGUGGCUAGACUGCCUCUCUGGAAUCCUCGUCACUCAGCAGGGCAUCUCUGAGAGAAAUGCC [A79G U108A], the self-cleavage is reported as 1.17. UACGUAGGUGGUUUUCCCCAGAUAGUGCUAAGGGGGCCUGGAAUUUUGGACUGGGCAGAGCUCAACACAGCGUGGCAAAGUGGCUGUGGCUAGACUGCCUCUCUGGAUUCCUCGUCACUCAGCAGGGCAUCUCUGAGAGAAAUGCC [U20A G44U] showed a self-cleavage of 1.2. UACGUAGGUGGUUUUCCCCUGAUAGUGCUAAGGGGGCCUGGAAGUUUGGACUGGGCAGAGCUCAACACAGCGCGGCAAAGUGGCUGUAGCUAGACUGCCUCUCUGGAUUCCUCGUCACUCAGCAGGGCAUCUCUGAGAGAAAUGCC [U73C G88A] showed a self-cleavage of 0.06. Variant UACGUAGGUGGUUUUCCCCUGAUAGUGCUAAGGGGGCCUGGAAGUUUGGACUGGGCAGAGCUCAACACAGCGUGGCAAAGUGGCUGUGGCUAGAAUGCCUCUCUGGAUUCCUCGUCACUCAGCAGGGCAUCUCUGAGAGAAAUGCC [C95A] has a self-cleavage of 0.07. UACGUAGGUGGCUUUCCCCUGAUAGUGCUAAGGGGGCCUGGAAGUUUGGACUGGGCAGAGCUCAACACAGCGGGGCAAAGUGGCUGUGGCUAGACUGCCUCUCUGGAUUCCUCGUCACUCAGCAGGGCAUCUCUGAGAGAAAUGCC [U12C U73G] showed a self-cleavage of 1.29. UACGUAGGUGGUUUUCCCCUGAUAGUGCUAAGGGGGCCUGGAAGUUUGGACUGGGCAGAGCUCAACACAGCGUGGCAAAGUGGCUGUGGCUAGACUGCCUCUCUGGAUUCCUCGUCACUCAGCAGGGCUUCACUGAGAGAAAUGCC [A129U U132A] gave a self-cleavage of 0.04. With UACGUAGGUGGUUUUCCCCCGAUAGUGCUAAGGGGGCCUGGAAGUUUGGACUGGGCAGAGCUUAACACAGCGUGGCAAAGUGGCUGUGGCUAGACUGCCUCUCUGGAUUCCUCGUCACUCAGCAGGGCAUCUCUGAGAGAAAUGCC [U20C C63U] the self-cleavage was 0.48. UACGUAGGUGGUUUUCCCCAGAUAGUGCUAAGGGGGCCUGGAAGUUUGGACUGGGCAGAGCUCAACACAGCGUGGCAAAGUGGCUGUGGCUAGACUGCCUCUCUGGAUUCCUCGUCCCUCAGCAGGGCAUCUCUGAGAGAAAUGCC [U20A A117C] showed a self-cleavage of 1.77. UACGUAGGUGGUUUUCCCCUGAUAGUGCUAAGGGGGCCUGGAAGUUUGGACUGGGCCGAGCUCAACACAGCGUGGCAAAGUGGCUGUGGCUAGACUGCCUCUCUGGAUUCCCCGUCACUCAGCAGGGCAUCUCUGAGAGAAAUGCC [A57C U112C] showed a self-cleavage of 0.08. Work on UACGUAGGUGGUUUUCCCCUGAUAGUGCUAAGGGGGCCUGGAAGUUUGGACUGGGCAGAGCUCAACACAGCGUGGCAAAGUGGCUGUGGCUAGACUGCCUCUCUGGAUUCCUCGUCACUCAACAGGGCGUCUCUGAGAGAAAUGCC [G122A A129G] yielded a self-cleavage of 1.19. UACGUAGGUGGUUUUCCCCUGAUAGUGCCAAGGGGGCCUGGAAGUUUGGACUGGGCAGAGCUCAACACAGCGUGGCAAAGUGGCUGUGGCUAGACUGCCUCUCUGGAUUCUUCGUCACUCAGCAGGGCAUCUCUGAGAGAAAUGCC [U29C C111U] gave a self-cleavage of 1.13. UACGUAGGUGGUUUUCCCCUGAUAGUGCUAAGGGGGCCUGGAAGUUUGGACUGGGCAGAGCUCAACACAGCGUGGCAAAGUGGCUGUGGCUAGACUGCCUCUCUGGAUUCCUCGUCACUCAGCAAGGCACCUCUGAGAGAAAUGCC [G125A U130C] showed a self-cleavage of 1.69. UCCGCAGGUGGUUUUCCCCUGAUAGUGCUAAGGGGGCCUGGAAGUUUGGACUGGGCAGAGCUCAACACAGCGUGGCAAAGUGGCUGUGGCUAGACUGCCUCUCUGGAUUCCUCGUCACUCAGCAGGGCAUCUCUGAGAGAAAUGCC [A2C U5C] showed a self-cleavage of 1.12. For UACGUAGGUGGUUUUCCCCGGAUAGUGCUAAGGGGGCCUGGAAGUUUGGACUGGGCAGAGCUCAACACAGCGUGGCAAAGUGGCUGUGGCUAGACUGCCUCUCUGGAUUCCUCGUCACUCAGCAGGGCAUCUCUGAGAGAAGUGCC [U20G A142G], the self-cleavage was 1.09. In the case of UACGUGGGUGGUUUUCCCCUGAUAGUGCUAAGGGGGCCUGGAAGUUUGGACUGGGCAGAGCUCAACACGGCGUGGCAAAGUGGCUGUGGCUAGACUGCCUCUCUGGAUUCCUCGUCACUCAGCAGGGCAUCUCUGAGAGAAAUGCC [A6G A69G], the self-cleavage is reported as 0.32. In the case of UACGUAGGUGGCUUCCCCCUGAUAGUGCUAAGGGGGCCUGGAAGUUUGGACUGGGCAGAGCUCAACACAGCGUGGCAAAGUGGCUGUGGCUAGACUGCCUCUCUGGAUUCCUCGUCACUCAGCAGGGCAUCUCUGAGAGAAAUGCC [U12C U15C], the self-cleavage is reported as 1.05. Variant UACGUAGGUGGUUUCCCCCUGAUAGUGCUAAGGGGGCCUGGAAGUUUGGACUGGGCAGAGCUCAACACAGCGUGGCAAAGUGGCUGUGGCUGGACUGCCUCUCUGGAUUCCUCGUCACUCAGCAGGGCAUCUCUGAGAGAAAUGCC [U15C A92G] has a self-cleavage of 0.21. In the case of AACGUAGGUGGUUUUCCCCUGAUAGUGCUAAGGGGGCCUGGAAGUUUGGACCGGGCAGAGCUCAACACAGCGUGGCAAAGUGGCUGUGGCUAGACUGCCUCUCUGGAUUCCUCGUCACUCAGCAGGGCAUCUCUGAGAGAAAUGCC [U1A U52C], the self-cleavage is reported as 1.64. For UACGUAGGUGGUUUUCCCCUGAUAGUGCUAAGGGGGCCUGGAAGUUUGGACUGGGCAGAGCUCAACACAGCGUGGCAAAGUAGCUGUGGCUAGACUGCCUCUCUGGAUUCCUCGUCACUCAGCAGGGCUUCUCUGAGAGAAAUGCC [G82A A129U], the self-cleavage was 1.21. UACGUAGGUGGUUUUCCCCUGAUAGUGCUAAGGGGGCCUGGAAGUUUGGACUGGGCAGAGCUCAACACAGCGUGGCGAAGUGGCUGUGGCUAGACUGCCUCUCUGGAUUCCUCGUCACUCAGCAGGUCAUCUCUGAGAGAAAUGCC [A77G G127U] showed a self-cleavage of 2.58. In the case of UACGUAGGUGGUUUUCCCCUGAUAGUGCUAAGGGGGCCUGGUAGUUUGGACUGGGCAGAGCUCAACACAGCGUGGCAAAGUGGCUGAGGCUAGACUGCCUCUCUGGAUUCCUCGUCACUCAGCAGGGCAUCUCUGAGAGAAAUGCC [A42U U87A], the self-cleavage is reported as 0.07.
